Common to all, as to assay: cell-based or functional assay
For assay [1], the target named is H7N9病毒Wuxi-01病毒株 (H7N9病毒).
Assay [2] has as its target H7N9病毒Wuxi-02病毒株 (H7N9病毒).
Assay [3] addresses H7N9病毒Suzhou-03病毒株 (H7N9病毒).
Assay [4] has as its target H7N9病毒Nanjing-06病毒株 (H7N9病毒).

中和100×TCID50病毒需要的抗体量 data for one molecule are collected here from CN106892979A.

B1: 全人源抗H7N9病毒的单克隆中和抗体mAb635 (antibody, V domains shown)
VH: TGVHSQVQLVQSGAEVKKPGASVKISCKASGYSFTNYTLHWVRQAPGQRLEWMGWINAGNGNTRYSQKFQARVTITRDTSASTGYMEVSSLRSEDTAVYYCARGAYYGFWNGHYMGDDDNYYYGMGVWGQGPRSPSPQRR
VL: TGSLSQPVLTQPPSVSVSPGQTASITCSGDKLGDKYACWYQQKPGQSPVQVIYQDTKRPSGIPERFSGSNSGDTATLTISGTQSVDEADYYCQAWDSSRDVVFGGGTKLTVLGQPKAAPSVTLFPTLE
B1: the 中和100×TCID50病毒需要的抗体量 in assay [1] is 160 ng; in assay [2], 320 ng; in assay [3] it was 80 ng; in assay [4], 80 ng.
